From US6428997B1, “Aminopeptidase derived from Bacillus licheniformis and process for preparation of natural type proteins” (LG Chemical Ltd., priority 1997, dated 2002)

What was measured:
[1] = tested on: CC(C)C[C@H](N)C(=O)Nc1ccc([N+](=O)[O-])cc1; test: purified protein, by the assay type; conditions: other: Tris-Cl pH 8.0, 37° C., measured by same experiment, Lineweaver-Burk plot
Description: (§1) Precisely, 1 U of enzyme activity defines the enzyme quantity changing 1 absorbance at 405 nm which is measured by the process adding aminopeptidase in 1 ml solution of 100M Tris-Cl (pH 8.0) and 2 mM leucine-p-nitroanilide (Sigma, USA), incubating at 37° C. for 1 min, then adding 100 μl of 70% acetic acid to stop the reaction. At that time leucine-p-nitroanilide was dissolved in dimethylsulfoxide (DMSO) to make 100 mM solution.
(§2) In order to compare substrate specificity of aminopeptidase of this invention, 2 kinds of substrate were used. In detail, one was synthetic substrates of p-nitroanilide derivative and purchased from Sigma, USA and the other was oligopeptide such as methionyl oligopeptide of SEQ. ID. NO: 1 which have amino acid sequence similar to N-terminus of methionyl HGH and leucyl oligopeptide of SEQ. ID. NO: 2.
(§3) Enzyme reaction of aminopeptidase was performed by the process described in Reference Examples. At that time p-nitroanilide derivative was used as synthetic substrate. Leucine p-nitroanilide was used as substrate to perform the reaction in concentration of 0.03125, 0.0625, 0.125, 0.25, 0.5, 1 mM and methionine p-nitroanilide in 0.125, 0.25, 0.5, 1 mM and aminopeptidase in 0.5 U respectively. Above reactions using leucine-p-nitroanilide proceeded for 2 min and methionine-p-nitroanilide for 40 min. Then 70% acetic acid was added to stop the reactions and absorbance at 405 nm was measured. The product concentration was measured by adopting absorbance constant ε405=9450M^−1 cm^−1.
(§4) In reaction condition mentioned above, initial velocity of enzyme reaction was measured with varying the substrate concentration. Lineweaver-Burk plot was used to determine Km value and Maximum reaction velocity of aminopeptidase from Bacillus licheniformis. In addition kcat and kcat/Km was determined by using Km value and maximum reaction velocity described above.

[2] = tested on: CSCC[C@H](N)C(=O)Nc1ccc([N+](=O)[O-])cc1; test: purified protein, by the assay type; conditions: other: Tris-Cl pH 8.0, 37° C., measured by same experiment, Lineweaver-Burk plot
Description: as §1, §2, §3, §4

With “Aeromonas proteolytica (Vibrio proteolytica) aminopeptidase (Vibrio proteolyticus)” the Km [1] was 0.240 mM, the kcat [1] was 48 s⁻¹ and the kcat/Km [1] was 200000 M⁻¹ s⁻¹. The Km [2] was 0.942 mM, the kcat [2] was 2.64 s⁻¹ and the kcat/Km [2] was 2800 M⁻¹ s⁻¹.
